Data on one molecule can be found in patent publication US9957308B2, “Method for detecting bilirubin using a fluorescent protein” (RIKEN, priority 2013, dated 2018).

Some results are limits rather than exact numbers.

One data set has as its system Escherichia coli cells. The data set can be described thus: Expression of recombinant UnaG protein in Escherichia coli, fluorescence observation. The data set is classed as cell-based. The conditions noted are these: blue light, UV transilluminator. From the text:
A DNA fragment including the sequence of full-length UnaG gene prepared above was ligated to the restriction enzyme sites, BamHI and EcoRI, of Escherichia coli expression vector […] (GE Healthcare) including a GST-tag sequence that can express the GST-fused protein in Escherichia coli and transformed into Escherichia coli strain DH5α for subcloning. Thus, a UnaG (apo form) expression vector (pGEX-2T-UnaG) for Escherichia coli was constructed.
The constructed expression vector (pGEX-2T-UnaG) was transformed into Escherichia coli strain BL21 (DE3). The transformant was cultured on a plate of an LB solid medium to obtain colonies. The resulting colonies were inoculated in 40 mL of an LB liquid medium and were cultured overnight at 37° C. Here, a glycerol stock of the resulting Escherichia coli solution was produced, and this glycerol stock was used as the recombinant (vector) for Escherichia coli expression in the experiments described below. The LB medium was scaled up to 400 mL using the culture solution, followed by culturing at 37° C. for 1 hr (A600≈1.0). […]
FIG. 1 includes diagrams showing expression of recombinant UnaG protein in Escherichia coli and mammalian cells. […] The diagram (c) includes a differential interference image and a fluorescence image by observation of mammalian cell HEK293T expressing recombinant UnaG protein under a fluorescence microscope. […]

The nature of data set [1]: Measurement of fluorescence spectrum, absorption spectrum, quantum yield and fluorescence lifetime. It counts as physicochemical. The procedure: In order to analyze the fluorescent properties of UnaG protein, the fluorescence spectrum, absorption spectrum, and quantum yield were measured. The excitation spectrum and the fluorescence spectrum were measured with a spectrophotofluorometer, RF-5300PC (Shimadzu Corporation), at an excitation wavelength of 475 nm and a fluorescence wavelength of 550 nm. The absorption spectrum was measured with a spectrophotometer, U-2900 (Hitachi High-Technologies Corporation). The quantum yield was measured with an absolute quantum yield measurement system, Quantaurus-QY (Hamamatsu Photonics K.K.) at excitation wavelengths of 470 nm and 480 nm. A known fluorescent protein, EGFP, was similarly measured, and the values were compared to those of UnaG protein.
In order to analyze the fluorescent properties of R82EK84E mutant, the fluorescence spectrum, absorption spectrum, and quantum yield were measured. The measurement was performed by the same method as that described in the above-described paragraph 3. The fluorescence lifetime was measured with a small-sized fluorescence lifetime measurement system, Quantaurus-Tau (Hamamatsu Photonics K.K.) and was compared to that of wild-type UnaG protein.
The fluorescence spectrum, absorption spectrum, and quantum yield (excitation wavelength: 470 nm) were measured for analyzing the fluorescent properties of holo A12ES80N mutant protein. The measurement was performed by the same method as that described in paragraph 3, above. The fluorescent properties were compared to those of wild-type UnaG protein.

Data set [2] in a line: Detection of unconjugated bilirubin in human serum by apo UnaG fluorescence. The conditions noted are these: apo UnaG added to 200-fold diluted human serum, room temperature, 527 nm. Here is the method: Blood (5 mL) was collected in a vacuum sealed blood collection tube (Neo-Tube, NIPRO) from a vein of the arm using a needle of 23G (Terumo Corporation) and a 5-mL cylinder (Terumo Corporation). The collected blood was shielded from light and was left to stand at room temperature for 30 min and was then centrifuged at a rotation speed of 3,000 rpm for 20 min (KUBOTA K-80) to collect about 2.5 mL of serum. The collected serum was cooled with ice while being shielded from light and was promptly subjected to measurement of bilirubin.
Apo UnaG was added to the serum diluted with PBS by 200-fold so as to give a final concentration of 0.5 μM, and 200 μL of the mixture was added to each well of a 96-well microplate (black, non-binding, Greiner Bio-One). Measurement of fluorescence was started immediately after the addition of samples to the plate. The fluorescence intensity was measured at room temperature at every 10 min for 1 hr at a fluorescence wavelength of 527 nm (excitation wavelength: 497 nm) using EnSpire (trademark) multi-mode plate reader (PerkinElmer Co., Ltd.). Each serum was measured using three wells, and the serum not mixed with apo UnaG protein was also measured as background. The net fluorescence intensity was determined by subtracting the intensity level of the background from the intensity level of the serum mixed with apo UnaG protein. […]

The mark [3] stands for this setting: Table 3, wild-type vs R82EK84E mutant.
Where [4] appears, read: Table 3, wild-type vs R82EK84E mutant, holo form reconstructed with bilirubin.
[5] abbreviates: Table 4, wild-type vs holo A12ES80N mutant.

B1: UnaG: fluorescent polypeptide including the amino acid sequence of SEQ ID NO: 1, originally isolated from Japanese eel; fluoresces in the presence of bilirubin (protein, listed as Anguilla japonica)
chain: MVEKFVGTWKIADSHNFGEYLKAIGAPKELSDGGDATTPTLYISQKDGDKMTVKIENGPPTFLDTQVKFKLGEEFDEFPSDRRKGVKSVVNLVGEKLVYVQKWDGKETTYVREIKDGKLVVTLTMGDVVAVRSYRRATE
As for B1, the “fluorescence of expressed protein in cells” value in the data set with Escherichia coli cells is on record as “did not emit fluorescence”. Moreover, the Maximum excitation wavelength in data set [1] (Table 2, UnaG compared to EGFP) was 498 nm; in data set [1] (setting [4]) it was 498 nm; in data set [1] (setting [5]), 499 nm. Besides, the Maximum fluorescence wavelength in data set [1] (Table 2, UnaG compared to EGFP) turned out to be 527 nm; in data set [1] (setting [4]) it was 527 nm; in data set [1] (setting [5]), 527 nm. Further, the Brightness in data set [1] (Table 2, [(Molar extinction coefficient) × (Quantum yield)]/1,000) turned out to be 39.4. For the same molecule, the Molar extinction coefficient in data set [1] (Table 2, at the maximum excitation wavelength (498 nm UnaG, 490 nm EGFP)) is recorded as 77,300 (498 nm) M^−1 cm^−1; in data set [1] (setting [3]), 56,992 M^−1 cm^−1; in data set [1] (setting [5]) it was 52,687 M^−1 cm^−1. Also, the Quantum yield came out at 51% in data set [1] (Table 2, excitation wavelengths 470 nm and 480 nm); 51% in data set [1] (setting [3]); 53.2% in data set [1] (Table 4, excitation wavelength 470 nm). The “Fluorescence lifetime (τ1/ns)” value in data set [1] (Table 3, wild-type vs R82EK84E mutant, Quantaurus-Tau) was found to be 2.2 ns. Besides, the Fluorescence lifetime in data set [1] (main fluorescent properties of UnaG) came to 2.2 nanosecond. Also, in data set [2], the “time stable fluorescence lasts” value was ≥ 1 h. In data set [2], the “time until stable fluorescence is generated” value is listed as “about 10 min”.
